Patent CN115232208A

Biological target: 人可溶性BLyS (human soluble BLyS) (human) (UniProt Q9Y275)
Assay: cell-based or functional assay

Benlysta (antibody)
IC50 of inhibition of the NF-κB signal downstream of human BLyS binding TACI (luciferase reporter gene assay): 0.0517 µg/mL
